Data taken from patent US20130115676.

Assays:
[1] = target: EcoRI (Escherichia coli RY13) (UniProt P00642); assay: cleavage_in_vitro; conditions: NEB3, 10 mM MgCl2, 37 C
BsmBI-HF N185Y/R232A = assay: cleavage_in_vitro; conditions: NEB4, 10 mM Mg acetate, 55 C; listed as BsmBI

Substance lambda DNA has an activity (fidelity index) [1] of 250 and an activity (fidelity index) (BsmBI-HF N185Y/R232A) greater than 500.
